Experimental data as given in the supplement of paper PMC12764529.
± gives the half width of the 95% confidence interval.

Legend:
[1] = folding stability dG unfold from chymotrypsin proteolysis; higher = more stable
In short: (§1)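 How resistant each design was to proteolysis was captured as K50, inferred by Bayesian fitting of sequencing counts. Unfolding free energy was then derived relative to a sequence-predicted unfolded-state K50 and a shared folded-state K50, per protease or combined. Digestion used trypsin and chymotrypsin at 11 threefold-diluted concentrations plus a no-protease condition, on mini-proteins under 80 residues without cysteine in a PA-tagged cDNA display construct. Designs were kept only when AlphaFold2 dimer inter-PAE was above 15.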

[2] = folding stability dG unfold from trypsin proteolysis; higher = more stable
In short: as §1

[3] = folding stability dG unfold (combined trypsin and chymotrypsin); higher = more stable
In short: as §1

| Sequence | folding stability dG unfold [1] [kcal/mol] | folding stability dG unfold [2] [kcal/mol] | folding stability dG unfold [3] [kcal/mol] |
| --- | --- | --- | --- |
| SAGGGNVTKTSTTTLPNGTTLVTYTGTSPSSAGSKNLSLLSLPFDVTVTKVEFDPNTGKVTIETVIPPSAGG [r13_413_JUSTAS] | 1.25 ± 0.14 | 0.516 ± 0.059 | 0.978 ± 0.13 |
| SAGGSAGGSMPKKTYEFEIEYEDPEEAVEKAIREFEEETGEKIEEVEVEYDPEKGIVKITLVKSAGGSAGGS [r12_265_JUSTAS] | 1.44 ± 0.088 | 0.921 ± 0.066 | 1.27 ± 0.21 |
| SAGGSAGGSAKPKITVTVEEVTNEDGSTYYRATARIEETGRTIEIYVRRDDLGKPVAIKITSAGGSAGGSAG [r3_432_TrROS_Hall] | 2.4 ± 0.085 | 1.82 ± 0.058 | 2.18 ± 0.12 |
| SAGGMTTTTTTYTIQLPNGETLTITITTTTLPGGITVTIPIGGTSPDQIAIAKELAEKLAAEIKEAASAGGS [r8_416_JUSTAS] | 3.83 ± 0.1 | 2.89 ± 0.096 | 3.55 ± 0.11 |
| SNWITLKHTIKHPGREIKIEITAQPNPGGPYWIQVNIEVRDPNGEKEEVEITVPFRGMSIEDFLKNAADASA [r9_217_TrROS] | 4.46 ± 0.062 | 2.85 ± 0.12 | 3.78 ± 0.29 |
| SAGGSAGGSAGGAEKFKVLSVSWDLGKGKRYGVLEVERPDGPLLTIVVPLSYPDKLKELASAGGSAGGSAGG [r7_365_TrMRF] | 1.29 ± 0.17 | 0.395 ± 0.14 | 1.02 ± 0.22 |
| SAGGSAGGKIKVEIEYNGEKKEMTLDEIKALLKKNLPPNATIRVKKNGKTIPLKKVKVKKLKKKSAGGSAGG [r6_936_TrROS_Hall] | 1.65 ± 0.15 | 1.08 ± 0.069 | 1.35 ± 0.18 |
| SAGGSAGGSAGMTIQIEILTTGDLEETKKKLEEELKKKYPSSLKVIIKLSHVPASEAPSDLGSAGGSAGGSA [r18_498_JUSTAS] | 1.19 ± 0.033 | 0.969 ± 0.025 | 1.13 ± 0.14 |
| SAGGSAGGSAGSWELSYRFPGVQIEVTYSPEWGFITEIKVQPLPPPPPPSPEDAKEMKEKSAGGSAGGSAGG [r11_320_TrROS] | 2.56 ± 0.081 | 0.799 ± 0.083 | 2.02 ± 0.12 |
| SAGGSAGGSAGGSSKVIEVNGYKITVTDNSVEIYNKKTGKKITVNADNPEVQELLKKLLSAGGSAGGSAGGS [r4_353_TrROS_Hall] | 4.254 ± 0.037 | 3.6 ± 0.089 | 4.07 ± 0.094 |
| SAGGSAGGSMRIKFEFKIGDKWVEEEIPADLSQLPLSEIKKKHPKAEYKIEIEDEEGNWTPLLSAGGSAGGS [r12_540_JUSTAS] | 1.04 ± 0.1 | 0.262 ± 0.11 | 0.767 ± 0.12 |
| SAGGSAGGSMWIVRIEYENPDNGKTYTIPIFVPPEDAEEIAKEIAEQLPGIKDIKVEIYPLNDSAGGSAGGS [r12_757_TrROS] | 2.22 ± 0.079 | 1.52 ± 0.064 | 2.03 ± 0.16 |
| SAGGSAGGSAGGWNIQVNPDNLKPGKEYRISITHPNGPPIPFEVRLKADGDGDWEFKIESAGGSAGGSAGGS [r10_390_TrROS] | 0.183 ± 0.12 | -0.0699 ± 0.059 | 0.134 ± 0.091 |
| SAGGSASNLKVTYKITIGSTTITVTLPEGSEKELKKIPNAEVTPISEIEPAPPPILYFKFENNNLVSAGGSA [r15_443_JUSTAS] | 1.25 ± 0.17 | 0.739 ± 0.047 | 1.09 ± 0.089 |
| SAGGSAGGSAGLTLRVKVKVELEYDPETNELTLRVEVEIELFPPPPLVVLSKEQLEELEESAGGSAGGSAGG [r17_454_TrROS_Hall] | 3.65 ± 0.24 | 2.67 ± 0.18 | 3.21 ± 0.39 |
| SAGGSAGGSAGKETITITLVVTDENGEKYLIRVEAKIDPKTNKITITKIEIIRLDDLKKLSAGGSAGGSAGG [r11_777_TrROS_Hall] | 1.72 ± 0.058 | 1.12 ± 0.093 | 1.75 ± 0.41 |
| SAGGNIKIQVENHEDGWYMKIWVPGNGKEQEYPFEPGDTIDTLPPGAEPVKIEWFHMNDNPQEFELDSAGGS [r8_487_TrROS] | 0.45 ± 0.23 | 0.295 ± 0.11 | 0.421 ± 0.18 |
| SAGGELVLLIRVTPERIEIRLLPKEALEGLELEAPPGERLLLVELEPPPPEEEEREERRREEREELEESAGG [r13_74_TrROS_Hall] | 1.4 ± 0.23 | 1.34 ± 0.13 | 1.32 ± 0.41 |
| SAGSATVTYDPDTNTVTVTLEGPDTTFTISFPNGEKLEVKATVKPLPDGSYKVLLEVYYPDGSKETFELSAG [r14_675_TrMRF] | 5.16 ± 0.3 | 4.13 ± 0.2 | > 6 |
| SAGGSAGGSAGGSPPGQEILIQIKIEFTFPIKKQTDGKPQWHPITISFTAAIPIKVDPNSAGGSAGGSAGGS [r4_271_TrROS] | 3.59 ± 0.092 | 3.22 ± 0.13 | 3.52 ± 0.14 |
| SAGGFRIERDGDYLRIEIRVNDPPGQPVEEAKNIMKQLFGFKDIKVDEIEPNPNGQAEIEIEIPFPKSAGGS [r16_234_TrROS] | -0.3 ± 0.29 | 0.658 ± 0.13 | 0.393 ± 0.12 |

| Sequence | folding stability dG unfold [1] [kcal/mol] | folding stability dG unfold [2] [kcal/mol] | folding stability dG unfold [3] [kcal/mol] |
| --- | --- | --- | --- |
| GRMYIVKIEIKVKRRDPEEGETRERKLEVHVIFPPNDPDALEKADEIARNLAEEDGITDVKVKIYPIRLPDS [r1_346_TrROS] | 1.89 ± 0.073 | 1.48 ± 0.051 | 1.74 ± 0.22 |
| SAVIPLEELARKVAEELGLEPVEVLEVIPEEGVVVMRFEGAVIVVKVDPETGEAEVEIVVFDPETGKPVSAG [r14_270_TrMRF] | 3.35 ± 0.063 | 2.82 ± 0.11 | 3.16 ± 0.085 |
| SAGGSAGGSAGGLSPGDEIKIRIMIFYRDPGSGNMRPIQPFPITIKIEPPPPKPKDPNNNSAGGSAGGSAGG [r7_522_TrROS] | 3.82 ± 0.085 | 2.27 ± 0.1 | 3.08 ± 0.12 |
| SAGGSAGALLVRFNDPELVRELIEALPFDALVERDPDDPNVLLVTLFTDGPLEEAVRAVREALGLESAGGSA [r15_118_TrMRF] | 3.25 ± 0.04 | 2.35 ± 0.039 | 2.98 ± 0.086 |
| SAGGMVEIELEVDGKKIKITYDKETGKITIEIDGKKIEVELPEEDKGKSKEELLKKALEKAKEELKKSAGGS [r16_215_TrROS_Hall] | 2.46 ± 0.11 | 2.46 ± 0.23 | 2.49 ± 0.11 |
| SAGGSAGGSAGGGKLAIRVEIEPVRTETRLRADGSLETRTEFRVRIEIRPVGNPDDPRNNSAGGSAGGSAGG [r7_523_TrMRF] | 4.36 ± 0.056 | 2.89 ± 0.059 | 3.89 ± 0.073 |
| SAGGSAGGSAGGKTYTLTFKAKIEVSEDDVVVITPPNGKKLVVPKENVKVHPDGTVTVTGSAGGSAGGSAGG [r7_684_TrMRF] | 1.27 ± 0.2 | 1.28 ± 0.097 | 1.19 ± 0.2 |
| SAGGSAGGSAGSIVTIPIAGLSPEEAEALIKEAIAAGEDKPIILVDEDGTPTVVPASELKSAGGSAGGSAGG [r11_541_JUSTAS] | -0.408 ± 0.035 | -0.189 ± 0.052 | -0.242 ± 0.079 |
| SAGGSAGGSAKIIIIEEDPEEAIRRVEELFGPGARIEPVRVVRVGDKVYVAVGIDIPASLASAGGSAGGSAG [r3_87_TrMRF] | 0.9 ± 0.017 | 1.094 ± 0.0092 | 0.977 ± 0.044 |
| SAGGSAGGVVPLEELAKRLGWSPEFLRELEEKGIKVELERVTPDKVVVTLTEPGTGETKTIELPSAGGSAGG [r6_969_JUSTAS] | 2.82 ± 0.13 | 3.19 ± 0.24 | 3.08 ± 0.17 |
| SAGGSAGGSAGGGMVIVTREPENLTFTVYREDPSTGKLRRIGTFPVSPDELEKVLALLSSAGGSAGGSAGGS [r10_275_JUSTAS] | 2.47 ± 0.074 | 1.77 ± 0.053 | 2.2 ± 0.079 |
| SELEDMTPEQLRERIRELLEELREERPGEEVEITIEELLERLPGMSREQLAEILGLTEEELENRTITIRASA [r9_525_TrROS_Hall] | 2.47 ± 0.085 | 2.08 ± 0.11 | 2.35 ± 0.14 |
| SAGGSAITIEVTMNPNGYMGIRLRDPGNGEEIQIPFPMEPGQNPEDVRNWAREIVDELKKDGWRIYSAGGSA [r15_1022_TrROS] | 1.76 ± 0.11 | 1.28 ± 0.019 | 1.59 ± 0.038 |
| SAGGSAGGMTVTTTSSFDPTSPTANTLTTTYVSPEELKRPEIQALPDLPGKTLEFPTTTPVPPPSAGGSAGG [r6_768_JUSTAS] | 0.0452 ± 0.048 | 0.679 ± 0.031 | 0.431 ± 0.085 |
| SAGDPEVVAEAEFPFTFPLAKIEVRISVYPDGTARIEVTITFPAPGKGNPKKPIKLRFRFEIKLAPDALSAG [r5_224_TrMRF] | 5.3 ± 0.15 | 3.8 ± 0.3 | 5.12 ± 0.36 |
| SAKKPKKVIEVTIVLPLEELKNMSLEELLKKILEELGIKEGEKVKIEVKLEEVEIDGKKYLVITVRIELSAG [r14_334_TrROS_Hall] | 2.69 ± 0.11 | 2.87 ± 0.13 | 2.69 ± 0.15 |
| SAGGSAGGSAGGSKPNNFKNIPKPVFKFKITTTEWKKNKDGTWTPVSTSTAEVTVWSNTSAGGSAGGSAGGS [r4_288_TrMRF] | 4.29 ± 0.1 | 3.2 ± 0.11 | 3.88 ± 0.21 |
| SAGMVKVEVEYRPLPNGTVEVTVKLTITEPVPDEDGNLYYKTKTLTITVPTTSLSEAPKHVEEFIKKLSAGG [r19_218_TrMRF] | 4.03 ± 0.18 | 2.52 ± 0.12 | 3.37 ± 0.19 |
| SAGGSMTITYDPETNTVTILDPNIPPNEPRPVTLTLPDGEKYTLTLRPVPGNGWTGTLTWKSTKDGSAGGSA [r2_89_TrMRF] | 1.54 ± 0.19 | 0.911 ± 0.05 | 1.27 ± 0.21 |
| SAGGKIKVTVEKEENGTYRVTVEITLPDGKKITITVTVPPGVKTEEEAKKLAEEKVKELLKKLGIKPSAGGS [r8_464_TrROS_Hall] | 4.27 ± 0.14 | 3.72 ± 0.15 | 4.11 ± 0.16 |
| SAGGKPKEITLVVKVGETVEFPEGAEVTYDKETGTVTIKLPDGRTIRVEVTYNPDTDYLVVKITVEPSAGGS [r16_122_TrROS_Hall] | 2.41 ± 0.083 | 2.07 ± 0.074 | 2.34 ± 0.13 |
